The source of these data is the RNAGym collection of RNA variant scans (doi:10.1093/molbev/msab373).

B1: Azoarcus group I ribozyme (parent)
chain: GUGCCUUGCGCCGGGAAACCACGCAAGGGAUGGUGUCAAAUUCGGCGAAACCUAAGCGCCCGCCCGGGCGUAUGGCAACGCCGAGCCAAGCUUCGGCGCCUGCGCCGAUGAAGGUGUAGAGACUAGACGGCACCCACCUAAGGCAAACGCUAUGGUGAAGGCAUAGUCCAGGGAGUGGCGAAAGUCACACAAACCGG

This data set covers variants of B1. Nature of the data set: reverse-splicing fitness (ratio to wild type); higher = more active; in vitro selection; Mg2+ level not given. Put shortly: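 An in vitro group I ribozyme library with randomized positions was T7-transcribed and gel-purified. In triplicate, 10 pmol RNA in EPPS pH 7.5 was reacted with 50 pmoles of a 30-nt RNA substrate for 1 h at 37 °C across several added MgCl2 levels (1–48 mM), then stopped with EDTA. Products were reverse transcribed from a substrate-complementary primer, PCR-amplified and sequenced (HiSeq 4000). Fitness is a variant's read proportion after selection over that before, normalised to wild type.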
Regarding GUGCCUUGCGCCGGGAAACCACGCAAGGGAUGGUGUCAAAUUCGGCGAAACCUAAGCGCCCGCCCGGGCGUAUGGCAACGCUGAGCCAAGCUUCGGCGCCUGCGCCGAUGAAGGUGUAGCGACUAGACGGCACCCACCUAAGGCCAACGGUAUGGUGAAGGCAUAGUCUAGGGAGGGGCGAAAGUCACACAAACCGG, the reverse-splicing fitness was determined as 0.00403.

Take GUGCCUUGCGCCGGGAAACCACGCAAGGGAUGGUGUCAAAUUCGGCGAAACCUAAGCGCCCGCCCGGGCGUAUGGCAACGCUGAGCCAAGCUUCGGCGCCUGCGCCGAUGAAGGUGUAGCGACUAGACGGCACCCACCUAAGGCCAACGGUAUGGUGAAGGCAUAGUCUAGGGAGCGGCGAAAGUCACACAAACCGG: the reverse-splicing fitness came out at 0.00991.

Take GUGCCUUGCGCCGGGAAACCACGCAAGGGAUGGUGUCAAAUUCGGCGAAACCUAAGCGCCCGCCCGGGCGUAUGGCAACGCUGAGCCAAGCUUCGGCGCCUGCGCCGAUGAAGGUGUAGCGACUAGACGGCACCCACCUAAGGCCAACGGUAUGGUGAAGGCAUAGUCUAGGGAGAGGCGAAAGUCACACAAACCGG: the reverse-splicing fitness came to 0.00992.

With GUGCCUUGCGCCGGGAAACCACGCAAGGGAUGGUGUCAAAUUCGGCGAAACCUAAGCGCCCGCCCGGGCGUAUGGCAACGCUGAGCCAAGCUUCGGCGCCUGCGCCGAUGAAGGUGUAGCGACUAGACGGCACCCACCUAAGGCCAACGGUAUGGUGAAGGCAUAGUCUAGGGAGUGGCGAAAGUCACACAAACCGG, the reverse-splicing fitness was 0.0107.

GUGCCUUGCGCCGGGAAACCACGCAAGGGAUGGUGUCAAAUUCGGCGAAACCUAAGCGCCCGCCCGGGCGUAUGGCAACGCUGAGCCAAGCUUCGGCGCCUGCGCCGAUGAAGGUGUAGCGACUAGACGGCACCCACCUAAGGCCAACGGUAUGGUGAAGGCAUAGUCAAGGGAGUGGCGAAAGUCACACAAACCGG: the reverse-splicing fitness was 0.00723.

Consider GUGCCUUGCGCCGGGAAACCACGCAAGGGAUGGUGUCAAAUUCGGCGAAACCUAAGCGCCCGCCCGGGCGUAUGGCAACGCUGAGCCAAGCUUCGGCGCCUGCGCCGAUGAAGGUGUAGCGACUAGACGGCACCCACCUAAGGCCAACGGUAUGGUGAAGGCAUAGUCGAGGGAGUGGCGAAAGUCACACAAACCGG, for which the reverse-splicing fitness worked out at 0.00584.

On to GUGCCUUGCGCCGGGAAACCACGCAAGGGAUGGUGUCAAAUUCGGCGAAACCUAAGCGCCCGCCCGGGCGUAUGGCAACGCUGAGCCAAGCUUCGGCGCCUGCGCCGAUGAAGGUGUAGCGACUAGACGGCACCCACCUAAGGCCAACGAUAUGGUGAAGGCAUAGUCUAGGGAGCGGCGAAAGUCACACAAACCGG, for which the reverse-splicing fitness came to 0.00799.

Regarding GUGCCUUGCGCCGGGAAACCACGCAAGGGAUGGUGUCAAAUUCGGCGAAACCUAAGCGCCCGCCCGGGCGUAUGGCAACGCUGAGCCAAGCUUCGGCGCCUGCGCCGAUGAAGGUGUAGCGACUAGACGGCACCCACCUAAGGCCAACGAUAUGGUGAAGGCAUAGUCUAGGGAGGGGCGAAAGUCACACAAACCGG, the reverse-splicing fitness is 0.00376.

In the case of GUGCCUUGCGCCGGGAAACCACGCAAGGGAUGGUGUCAAAUUCGGCGAAACCUAAGCGCCCGCCCGGGCGUAUGGCAACGCUGAGCCAAGCUUCGGCGCCUGCGCCGAUGAAGGUGUAGCGACUAGACGGCACCCACCUAAGGCCAACGAUAUGGUGAAGGCAUAGUCUAGGGAGAGGCGAAAGUCACACAAACCGG, the reverse-splicing fitness came out at 0.0146.

Turning to GUGCCUUGCGCCGGGAAACCACGCAAGGGAUGGUGUCAAAUUCGGCGAAACCUAAGCGCCCGCCCGGGCGUAUGGCAACGCUGAGCCAAGCUUCGGCGCCUGCGCCGAUGAAGGUGUAGCGACUAGACGGCACCCACCUAAGGCCAACGAUAUGGUGAAGGCAUAGUCGAGGGAGCGGCGAAAGUCACACAAACCGG, the reverse-splicing fitness worked out at 0.00772.

As to GUGCCUUGCGCCGGGAAACCACGCAAGGGAUGGUGUCAAAUUCGGCGAAACCUAAGCGCCCGCCCGGGCGUAUGGCAACGCUGAGCCAAGCUUCGGCGCCUGCGCCGAUGAAGGUGUAGCGACUAGACGGCACCCACCUAAGGCCAACGAUAUGGUGAAGGCAUAGUCGAGGGAGAGGCGAAAGUCACACAAACCGG, the reverse-splicing fitness was found to be 0.0162.

Consider GUGCCUUGCGCCGGGAAACCACGCAAGGGAUGGUGUCAAAUUCGGCGAAACCUAAGCGCCCGCCCGGGCGUAUGGCAACGCUGAGCCAAGCUUCGGCGCCUGCGCCGAUGAAGGUGUAGCGACUAGACGGCACCCACCUAAGGCCAACGAUAUGGUGAAGGCAUAGUCGAGGGAGGGGCGAAAGUCACACAAACCGG, for which the reverse-splicing fitness is 0.00448.

With GUGCCUUGCGCCGGGAAACCACGCAAGGGAUGGUGUCAAAUUCGGCGAAACCUAAGCGCCCGCCCGGGCGUAUGGCAACGCUGAGCCAAGCUUCGGCGCCUGCGCCGAUGAAGGUGUAGCGACUAGACGGCACCCACCUAAGGCCAACGAUAUGGUGAAGGCAUAGUCAAGGGAGCGGCGAAAGUCACACAAACCGG, the reverse-splicing fitness was determined as 0.00429.

Regarding GUGCCUUGCGCCGGGAAACCACGCAAGGGAUGGUGUCAAAUUCGGCGAAACCUAAGCGCCCGCCCGGGCGUAUGGCAACGCUGAGCCAAGCUUCGGCGCCUGCGCCGAUGAAGGUGUAGCGACUAGACGGCACCCACCUAAGGCCAACGAUAUGGUGAAGGCAUAGUCAAGGGAGAGGCGAAAGUCACACAAACCGG, the reverse-splicing fitness stood at 0.00849.

On to GUGCCUUGCGCCGGGAAACCACGCAAGGGAUGGUGUCAAAUUCGGCGAAACCUAAGCGCCCGCCCGGGCGUAUGGCAACGCUGAGCCAAGCUUCGGCGCCUGCGCCGAUGAAGGUGUAGCGACUAGACGGCACCCACCUAAGGCCAACGAUAUGGUGAAGGCAUAGUCAAGGGAGGGGCGAAAGUCACACAAACCGG, for which the reverse-splicing fitness came out at 0.00369.
